Test results from paper PMC9604523, “Discovery of New Phenylacetone Monooxygenase Variants for the Development of Substituted Indigoids through Biocatalysis” (International Journal of Molecular Sciences, 2022).
Substitutions are numbered along the chain they refer to. Names may count otherwise.

B1: PAMO (phenylacetone monooxygenase; PAMOWT, PAMOHPCD, PAMOHPED) (Thermobifida fusca YX) (protein)
chain: MAGQTTVDSRRQPPEEVDVLVVGAGFSGLYALYRLRELGRSVHVIETAGDVGGVWYWNRYPGARCDIESIEYCYSFSEEVLQEWNWTERYASQPEILRYINFVADKFDLRSGITFHTTVTAAAFDEATNTWTVDTNHGDRIRARYLIMASGQLSVPQLPNFPGLKDFAGNLYHTGNWPHEPVDFSGQRVGVIGTGSSGIQVSPQIAKQAAELFVFQRTPHFAVPARNAPLDPEFLADLKKRYAEFREESRNTPGGTHRYQGPKSALEVSDEELVETLERYWQEGGPDILAAYRDILRDRDANERVAEFIRNKIRNTVRDPEVAERLVPKGYPFGTKRLILEIDYYEMFNRDNVHLVDTLSAPIETITPRGVRTSEREYELDSLVLATGFDALTGALFKIDIRGVGNVALKEKWAAGPRTYLGLSTAGFPNLFFIAGPGSPSALSNMLVSIEQHVEWVTDHIAYMFKNGLTRSEAVLEKEDEWVEHVNEIADETLYPMTASWYTGANVPGKPRVFMLYVGGFHRYRQICDEVAAKGYEGFVLT
B2: PAMO (phenylacetone monooxygenase; PAMOWT, PAMOHPCD, PAMOHPED) (Thermobifida fusca YX; A442P/L443C/P440F/P94D/Q93N/S441H/S444D) (protein)
chain: B1 chain with Q93N, P94D, P440F, S441H, A442P, L443C, S444D
B3: PAMO (phenylacetone monooxygenase; PAMOWT, PAMOHPCD, PAMOHPED) (Thermobifida fusca YX; A442P/L443E/P440F/P94D/Q93N/S441H/S444D) (protein)
chain: B1 chain with Q93N, P94D, P440F, S441H, A442P, L443E, S444D

Assays:
purified protein [1] = substrate: NC(=O)C1=CN([C@@H]2O[C@H](COP(=O)(O)OP(=O)(O)OC[C@H]3O[C@@H](n4cnc5c(N)ncnc54)[C@H](OP(=O)(O)O)[C@@H]3O)[C@@H](O)[C@H]2O)C=CC1; test: purified protein; format: biochemical, Thermobifida fusca; conditions: 50 mM phosphate pH 8.0, 1 µM enzyme, NADPH varied 5.0-500 µM, varied: cofactor
purified protein [2] = substrate: c1ccc2[nH]ccc2c1; test: purified protein; format: biochemical, Thermobifida fusca; conditions: 50 mM phosphate pH 8.0, 1 µM enzyme, indole varied 0.05-1 mM, NADPH fixed at saturating concentration
[3] = indole fixed at saturating concentration (wild type does not use indole; NADPH depletion control)
[4] = indole fixed at saturating concentration

| Protein | Km (purified protein [1]; [3]) | kcat (purified protein [1]; [3]) | kcat/Km (purified protein [1]; [3]) | Km (purified protein [1]; [4]) | kcat (purified protein [1]; [4]) | kcat/Km (purified protein [1]; [4]) | Km (purified protein [2]) | kcat (purified protein [2]) | kcat/Km (purified protein [2]) |
| --- | --- | --- | --- | --- | --- | --- | --- | --- | --- |
| B1 | 0.9 µM | 4.8 s⁻¹ | 5.2e+06 M⁻¹ s⁻¹ |  |  |  |  |  |  |
| B2 |  |  |  | 7.6 µM | 6.8 s⁻¹ | 900000 M⁻¹ s⁻¹ | 58.2 µM | 5.4 s⁻¹ | 93000 M⁻¹ s⁻¹ |
| B3 |  |  |  | 4.4 µM | 1.9 s⁻¹ | 430000 M⁻¹ s⁻¹ | 109.0 µM | 1.7 s⁻¹ | 16000 M⁻¹ s⁻¹ |
